Literature values as cited in paper PMC7570734.
Read-outs that look alike come from different tables or passages of the source.

Columns and labels:
[1] = target: alpha-factor (Saccharomyces cerevisiae) (UniProt P01149)
[2] = target: alpha-factor (Saccharomyces cerevisiae) (UniProt P01149); remark: listed apart in the source

With Ste2p (from UniProt D6VTK4) as the substance, how does the Kd [1] read?
Its Kd is 17 nM.

And the Kd [2]?
The Kd was > 150 nM.
